Reference: article PMC3920545 (Journal of molecular biology, 2012)

Target: human Toll-like receptor 3 ectodomain (TLR3ecd) (Homo sapiens, UniProt O15455)
Experiment: SPR

B1: Fab1068 (Fab, V domains shown)
VH: QVQLQQPGAELVQPGTSVRLSCKASGYIFTTYWIHWVKQRPGQGLEWIGEINPNNGRINYNEKFKTKATLTVDKSSSTAYMQLSSLTSEDSAVYYCTRVGVMITTFPYWGQGTLVTVSA
VL: DIQMTQSPASLSASVGETVTITCRASGNIHNYLAWYQQKQGKSPQLLVYNAKTLADGVPSRFSGSESGTQYSLKINSLQPEDFGSYYCQHFWSTPFTFGSGTKLELK
Work on B1 yielded a Kd of 0.0291 nM, a koff of 0.000103 s⁻¹ and a kon of 3.54e+06 M⁻¹ s⁻¹.
